Earlier results as cited in patent US9241970B2, “Therapy for subarachnoid hemorrhage and ischemia” (NoNO Inc., priority 2011, dated 2016).

Target: binding of NMDAR2B to PSD-95 (Homo sapiens, UniProt P78352)
Details: reported by Bach

binding of NMDAR2B to PSD-95, sequence (P78352 whole entry): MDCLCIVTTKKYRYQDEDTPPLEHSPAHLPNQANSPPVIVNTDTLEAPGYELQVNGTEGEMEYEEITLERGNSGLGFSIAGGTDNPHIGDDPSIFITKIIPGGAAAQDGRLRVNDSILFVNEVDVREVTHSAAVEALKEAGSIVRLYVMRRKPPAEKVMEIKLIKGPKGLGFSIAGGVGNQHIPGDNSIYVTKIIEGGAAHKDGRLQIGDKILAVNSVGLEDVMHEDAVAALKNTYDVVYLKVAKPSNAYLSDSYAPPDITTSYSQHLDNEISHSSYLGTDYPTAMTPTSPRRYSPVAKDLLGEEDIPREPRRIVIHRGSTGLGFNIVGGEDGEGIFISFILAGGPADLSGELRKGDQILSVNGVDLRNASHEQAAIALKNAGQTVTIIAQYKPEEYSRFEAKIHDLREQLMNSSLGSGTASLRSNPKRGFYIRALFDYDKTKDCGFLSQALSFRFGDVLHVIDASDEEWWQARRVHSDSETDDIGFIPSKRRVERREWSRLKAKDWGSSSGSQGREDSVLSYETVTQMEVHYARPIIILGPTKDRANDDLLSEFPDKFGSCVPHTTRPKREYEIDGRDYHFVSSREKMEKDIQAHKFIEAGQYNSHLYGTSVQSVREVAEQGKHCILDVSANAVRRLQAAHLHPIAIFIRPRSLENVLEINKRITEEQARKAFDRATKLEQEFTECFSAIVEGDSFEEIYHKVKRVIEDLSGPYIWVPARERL

## IESDV (listed as Homo sapiens)
  inhibition of binding of NMDAR2B to PSD-95: effective in inhibiting binding of NMDAR2B to PSD-95
